Data published in publication PMC3034641 (Cancer research, 2010).

T1: THAP1(1-213)-Fc fusion protein (human, UniProt Q9NVV9 1-213)
T1 sequence (looked up): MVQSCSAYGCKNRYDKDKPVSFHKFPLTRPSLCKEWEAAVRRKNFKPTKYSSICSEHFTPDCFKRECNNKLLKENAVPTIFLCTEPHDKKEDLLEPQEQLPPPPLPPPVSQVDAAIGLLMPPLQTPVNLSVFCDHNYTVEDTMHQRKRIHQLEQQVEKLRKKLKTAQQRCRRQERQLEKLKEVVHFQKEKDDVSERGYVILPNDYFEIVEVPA

B1: purified recombinant human CCL21 (Chemicon) (ligand, UniProt O00585 24-134, looked up)
chain: SDGGAQDCCLKYSQRKIPAKVVRSYRKQEPSLGCSIPAILFLPRKRSQAELCADPKELWVQQLMQHLDKTPSPQKPAQGCRKDRGASKTGKKGKGSKGCKRTERSQTPKGP

Legend:
[1] = target: B1; assay: SPR
[2] = target: T1, THAP1(1-213)-Fc fusion protein; assay: SPR

Row | Binder | Kd [1] [nM] | Kd [2] [nM]
1 | Chemotrap-1 (THAP1(140-213)-Fc), purified from CHO cells (Fc fusion, human, UniProt Q9NVV9 140-213, looked up) EDTMHQRKRIHQLEQQVEKLRKKLKTAQQRCRRQERQLEKLKEVVHFQKEKDDVSERGYVILPNDYFEIVEVPA | 102 | –
2 | B1 | – | 87
